According to patent publication US20200231974A1 (published 2020):

T1: HCMV pp65 peptide on HLA-B*07:02 (human)
T1 peptide: TPRVTGGGAM

B1: HBD4.1.S9-1.D5 (SEQ0707 and SEQ0708) (TCR, V domains shown)
Valpha: DAKTTQPPSMDCAEGRAANLPCNHSTISGNEYVYWYRQIHSQGPQYIIHGLKNNETNEMASLIITEDRKSSTLILPHATLRDTAVYYCIVRDRYNTGNQFYFGTGTSLTVIP
Vbeta: EAQVTQNPRYLITVTGKKLTVTCSQNMNHEYMSWYRQDPGLGLRQIYYSMNVEVTDKGDVPEGYKVSRKEKRNFPLILESPSPNQTSLYFCASSLGPSSYEQYFGPGTRLTVT
B2: HBD4.1.S9-2.A6 (SEQ0709 and SEQ0710) (TCR, V domains shown)
Valpha: AQKITQTQPGMFVQEKEAVTLDCTYDTSDQSYGLFWYKQPSSGEMIFLIYQGSYDEQNATEGRYSLNFQKARKSANLVISASQLGDSAMYFCAMREGMDSSYKLIFGSGTRLLVRP
Vbeta: DTGVSQNPRHKITKRGQNVTFRCDPISEHNRLYWYRQTLGQGPEFLTYFQNEAQLEKSRLLSDRFSAERPKGSFSTLEIQRTEQGDSAMYLCASSLHDRGARTEAFFGQGTRLTVV
B3: HBD4.1.S9-7.E5 (SEQ0713 and SEQ0714) (TCR, V domains shown)
Valpha: AQKITQTQPGMFVQEKEAVTLDCTYDTSDQSYGLFWYKQPSSGEMIFLIYQGSYDEQNATEGRYSLNFQKARKSANLVISASQLGDSAMYFCAMRPYTGGFKTIFGAGTRLFVKA
Vbeta: EAQVTQNPRYLITVTGKKLTVTCSQNMNHEYMSWYRQDPGLGLRQIYYSMNVEVTDKGDVPEGYKVSRKEKRNFPLILESPSPNQTSLYFCASSTSPSTARYGYTFGSGTRLTVV
B4: HBD4.1.S9-7.C5 (SEQ0715 and SEQ0716) (TCR, V domains shown)
Valpha: AQSVAQPEDQVNVAEGNPLTVKCTYSVSGNPYLFWYVQYPNRGLQFLLKYITGDNLVKGSYGFEAEFNKSQTSFHLKKPSALVSDSALYFCAVRSRMDSSYKLIFGSGTRLLVRP
Vbeta: DTGVSQNPRHKITKRGQNVTFRCDPISEHNRLYWYRQTLGQGPEFLTYFQNEAQLEKSRLLSDRFSAERPKGSFSTLEIQRTEQGDSAMYLCASSPPDAAYNEQFFGPGTRLTVL
B5: HBD4.1.S9-5.E3 (SEQ0717 and SEQ0718) (TCR, V domains shown)
Valpha: SQQGEEDPQALSIQEGENATMNCSYKTSINNLQWYRQNSGRGLVHLILIRSNEREKHSGRLRVTLDTSKKSSSLLITASRAADTASYFCATELRMDSSYKLIFGSGTRLLVRP
Vbeta: DTGVSQNPRHKITKRGQNVTFRCDPISEHNRLYWYRQTLGQGPEFLTYFQNEAQLEKSRLLSDRFSAERPKGSFSTLEIQRTEQGDSAMYLCASSLREGRLPETQYFGPGTRLLVL

Target: T1, HCMV pp65 peptide on HLA-B*07:02
Assay: multimer staining

Binding result, recognises:
B1
B2
B3
B4
B5
